Data from paper PMC5477518.

Molecular target: LRP1, endogenous on primary cortical neurons (mouse (endogenous in primary cortical neurons)) (UniProt Q91ZX7)
UniProt Q91ZX7, sequence (Q91ZX7 20-4545): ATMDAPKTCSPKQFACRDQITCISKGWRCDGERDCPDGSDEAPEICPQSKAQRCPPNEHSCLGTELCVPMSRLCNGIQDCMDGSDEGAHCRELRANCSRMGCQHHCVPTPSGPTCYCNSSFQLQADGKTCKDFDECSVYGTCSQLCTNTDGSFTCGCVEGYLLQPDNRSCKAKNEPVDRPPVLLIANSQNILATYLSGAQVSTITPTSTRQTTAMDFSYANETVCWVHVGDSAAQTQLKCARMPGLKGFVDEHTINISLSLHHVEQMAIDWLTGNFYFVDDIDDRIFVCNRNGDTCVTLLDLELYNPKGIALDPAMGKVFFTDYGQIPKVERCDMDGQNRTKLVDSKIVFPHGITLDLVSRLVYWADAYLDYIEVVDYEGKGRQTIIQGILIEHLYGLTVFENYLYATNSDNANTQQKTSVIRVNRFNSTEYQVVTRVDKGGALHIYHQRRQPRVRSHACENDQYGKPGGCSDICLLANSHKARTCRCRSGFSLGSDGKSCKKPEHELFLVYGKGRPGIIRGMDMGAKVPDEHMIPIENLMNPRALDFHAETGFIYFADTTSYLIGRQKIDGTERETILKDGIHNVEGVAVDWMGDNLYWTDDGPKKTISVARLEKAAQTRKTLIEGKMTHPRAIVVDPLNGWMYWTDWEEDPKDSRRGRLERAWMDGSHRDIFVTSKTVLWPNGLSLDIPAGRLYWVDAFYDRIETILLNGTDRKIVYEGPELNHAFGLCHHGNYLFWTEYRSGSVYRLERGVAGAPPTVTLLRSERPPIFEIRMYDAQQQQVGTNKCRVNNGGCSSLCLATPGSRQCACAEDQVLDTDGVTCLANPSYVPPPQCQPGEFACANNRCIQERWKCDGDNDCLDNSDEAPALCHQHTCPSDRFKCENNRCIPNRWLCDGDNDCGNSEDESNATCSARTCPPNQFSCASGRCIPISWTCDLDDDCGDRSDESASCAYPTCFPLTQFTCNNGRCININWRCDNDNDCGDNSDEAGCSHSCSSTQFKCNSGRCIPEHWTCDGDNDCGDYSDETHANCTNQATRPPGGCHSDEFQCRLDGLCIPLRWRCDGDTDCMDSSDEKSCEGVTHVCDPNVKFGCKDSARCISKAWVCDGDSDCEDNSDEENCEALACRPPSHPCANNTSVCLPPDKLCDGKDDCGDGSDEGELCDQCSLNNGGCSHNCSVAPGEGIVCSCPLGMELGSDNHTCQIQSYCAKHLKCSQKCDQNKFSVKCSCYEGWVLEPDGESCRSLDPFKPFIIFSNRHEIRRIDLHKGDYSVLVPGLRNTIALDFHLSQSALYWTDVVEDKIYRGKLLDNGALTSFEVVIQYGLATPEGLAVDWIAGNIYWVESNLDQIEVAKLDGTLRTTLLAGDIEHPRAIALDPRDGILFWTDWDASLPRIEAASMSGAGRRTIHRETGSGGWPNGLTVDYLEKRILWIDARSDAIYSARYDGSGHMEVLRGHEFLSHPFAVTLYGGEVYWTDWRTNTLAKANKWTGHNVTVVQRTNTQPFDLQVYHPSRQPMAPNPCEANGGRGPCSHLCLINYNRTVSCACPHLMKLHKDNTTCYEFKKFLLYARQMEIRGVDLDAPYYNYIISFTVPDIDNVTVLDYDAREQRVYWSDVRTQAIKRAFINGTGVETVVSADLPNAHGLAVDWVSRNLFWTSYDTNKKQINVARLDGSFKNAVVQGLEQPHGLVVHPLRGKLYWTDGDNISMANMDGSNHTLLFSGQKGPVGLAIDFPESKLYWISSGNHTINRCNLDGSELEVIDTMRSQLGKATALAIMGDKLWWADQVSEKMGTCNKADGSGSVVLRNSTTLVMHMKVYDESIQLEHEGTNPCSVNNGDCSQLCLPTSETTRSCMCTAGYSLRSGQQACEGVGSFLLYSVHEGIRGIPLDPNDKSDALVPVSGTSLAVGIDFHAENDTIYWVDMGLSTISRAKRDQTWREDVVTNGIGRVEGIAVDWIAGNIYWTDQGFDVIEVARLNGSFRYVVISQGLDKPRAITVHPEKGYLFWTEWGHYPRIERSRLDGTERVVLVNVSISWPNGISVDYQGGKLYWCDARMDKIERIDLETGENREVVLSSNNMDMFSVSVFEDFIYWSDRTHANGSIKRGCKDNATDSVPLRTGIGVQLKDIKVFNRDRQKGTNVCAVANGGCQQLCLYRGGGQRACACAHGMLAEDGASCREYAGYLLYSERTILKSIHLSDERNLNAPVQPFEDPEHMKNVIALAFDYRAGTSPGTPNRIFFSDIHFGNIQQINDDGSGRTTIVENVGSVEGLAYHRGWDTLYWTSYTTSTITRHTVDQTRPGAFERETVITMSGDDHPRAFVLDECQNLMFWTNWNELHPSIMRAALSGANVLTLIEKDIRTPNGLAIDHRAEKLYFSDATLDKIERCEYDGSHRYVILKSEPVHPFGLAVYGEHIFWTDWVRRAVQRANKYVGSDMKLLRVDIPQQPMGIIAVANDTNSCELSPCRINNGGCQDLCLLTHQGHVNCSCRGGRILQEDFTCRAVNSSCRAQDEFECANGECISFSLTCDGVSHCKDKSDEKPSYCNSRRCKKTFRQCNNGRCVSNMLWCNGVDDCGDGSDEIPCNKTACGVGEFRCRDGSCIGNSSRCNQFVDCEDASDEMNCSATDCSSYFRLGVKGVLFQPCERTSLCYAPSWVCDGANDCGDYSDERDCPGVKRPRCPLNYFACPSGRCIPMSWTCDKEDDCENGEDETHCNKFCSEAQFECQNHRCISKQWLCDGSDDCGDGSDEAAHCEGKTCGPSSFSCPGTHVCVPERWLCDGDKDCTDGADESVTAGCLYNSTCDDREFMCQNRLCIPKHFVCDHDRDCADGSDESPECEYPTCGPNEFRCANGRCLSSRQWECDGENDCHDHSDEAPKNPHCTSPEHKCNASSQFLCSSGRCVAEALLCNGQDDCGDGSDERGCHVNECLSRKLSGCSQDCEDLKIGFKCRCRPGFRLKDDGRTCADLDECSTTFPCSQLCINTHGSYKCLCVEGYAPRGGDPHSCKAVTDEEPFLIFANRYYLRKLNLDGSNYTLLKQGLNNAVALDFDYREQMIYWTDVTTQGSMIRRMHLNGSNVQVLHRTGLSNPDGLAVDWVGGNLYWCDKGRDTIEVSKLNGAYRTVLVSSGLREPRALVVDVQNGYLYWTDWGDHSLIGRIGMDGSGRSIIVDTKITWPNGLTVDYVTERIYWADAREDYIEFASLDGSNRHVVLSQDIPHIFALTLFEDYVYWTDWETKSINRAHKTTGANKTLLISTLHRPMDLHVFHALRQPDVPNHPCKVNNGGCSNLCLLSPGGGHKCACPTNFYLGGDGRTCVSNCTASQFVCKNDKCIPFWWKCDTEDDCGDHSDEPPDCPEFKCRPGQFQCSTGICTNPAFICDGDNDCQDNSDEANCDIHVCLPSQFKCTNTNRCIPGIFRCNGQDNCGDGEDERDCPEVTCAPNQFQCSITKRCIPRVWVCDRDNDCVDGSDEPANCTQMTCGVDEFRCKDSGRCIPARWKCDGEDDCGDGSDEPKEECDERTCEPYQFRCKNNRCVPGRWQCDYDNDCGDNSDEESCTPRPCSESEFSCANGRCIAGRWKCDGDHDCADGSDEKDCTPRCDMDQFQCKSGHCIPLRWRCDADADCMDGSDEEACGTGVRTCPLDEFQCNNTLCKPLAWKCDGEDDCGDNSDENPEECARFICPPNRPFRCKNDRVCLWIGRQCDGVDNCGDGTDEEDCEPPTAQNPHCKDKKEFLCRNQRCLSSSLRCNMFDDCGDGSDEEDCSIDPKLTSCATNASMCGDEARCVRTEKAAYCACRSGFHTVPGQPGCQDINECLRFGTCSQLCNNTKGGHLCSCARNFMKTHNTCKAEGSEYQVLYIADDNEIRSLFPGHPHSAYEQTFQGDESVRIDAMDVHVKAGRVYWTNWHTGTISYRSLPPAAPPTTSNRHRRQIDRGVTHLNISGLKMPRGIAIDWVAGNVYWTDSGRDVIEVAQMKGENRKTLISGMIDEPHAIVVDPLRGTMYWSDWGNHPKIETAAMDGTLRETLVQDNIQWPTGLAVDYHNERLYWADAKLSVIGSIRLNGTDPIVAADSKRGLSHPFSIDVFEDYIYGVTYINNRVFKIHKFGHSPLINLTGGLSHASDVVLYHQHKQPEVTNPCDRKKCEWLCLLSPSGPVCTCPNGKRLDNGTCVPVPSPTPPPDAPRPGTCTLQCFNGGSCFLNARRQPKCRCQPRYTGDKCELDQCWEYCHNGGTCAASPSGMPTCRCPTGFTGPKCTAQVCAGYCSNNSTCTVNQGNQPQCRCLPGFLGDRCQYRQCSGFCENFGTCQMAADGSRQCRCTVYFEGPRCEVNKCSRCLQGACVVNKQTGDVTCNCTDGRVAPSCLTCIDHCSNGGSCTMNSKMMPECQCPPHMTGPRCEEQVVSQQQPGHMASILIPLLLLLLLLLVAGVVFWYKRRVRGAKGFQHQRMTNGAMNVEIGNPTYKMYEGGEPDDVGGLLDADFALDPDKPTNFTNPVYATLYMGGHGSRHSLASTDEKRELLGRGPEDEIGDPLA

B1: Recombinant his-human PSAP (natural protein)
chain: GPVLGLKECTRGSAVWCQNVKTASDCGAVKHCLQTVWNKPTVKSLPCDICKDVVTAAGDMLKDNATEEEILVYLEKTCDWLPKPNMSASCKEIVDSYLPVILDIIKGEMSRPGEVCSALNLCESLQKHLAELNHQKQLESNKIPELDMTEVVAPFMANIPLLLYPQDGPRSKPQPKDNGDVCQDCIQMVTDIQTAVRTNSTFVQALVEHVKEECDRLGPGMADICKNYISQYSEIAIQMMMHMQPKEICALVGFCDEVKEMPMQTLVPAKVASKNVIPALELVEPIKKHEVPAKSDVYCEVCEFLVKEVTKLIDNNKTEKEILDAFDKMCSKLPKSLSEECQEVVDTYGSSILSILLEEVSPELVCSMLHLCSGTRLPALTVHVTQPKDGGFCEVCKKLVGYLDRNLEKNSTKQEILAALEKGCSFLPDPYQKQCDQFVAEYEPVLIEILVEVMDPSFVCLKIGACPSAHKPLLGTEKCIWGPSYWCQNTETAAQCNAVEHCKRHVWN
uptake of hPSAP (1 μg/ml) by primary cortical neurons in the presence of GST-RAP (50 μg/ml), immunoblot: 75%
